Data as given in patent publication US20160326230A1, “HUMAN RELAXIN ANALOGUE, PHARMACEUTICAL COMPOSITION OF SAME, AND PHARMACEUTICAL APPLICATION OF SAME” (SHANGHAI HENGRUI PHARMACEUTICAL CO., LTD., priority 2013, published 2016).
Positions of bridges follow the written chain, without caps; N, C: chain ends. Chains are numbered I, II in the order given. No end group written: not given here.

Target: the receptor on THP-1 cells
Assay: cell-based or functional assay

EC50 (ng/ml) of cAMP induced in THP-1 cells (cAMP ELISA): 1.5 ng/mL
B1: recombinant human relaxin analog 800814 (ligand)
chain 1: DSWMEEVIKLCGRDLVRAQIAICGMSTWS
chain 2: DLYSALANKCCHVGCTKRSLARFC
modifications: disulfide I:23-II:24; also: two more disulfides among A10, A11, A15 and B11
